1 molecule from publication doi:10.1101/2025.03.14.643404 (2025) can be followed below.

Test [1] has as its target T1, BCL6^BTB (residues 5-129; C8Q, C67R, C84N), tags cleaved (pSG219C) (human, UniProt P41182 5-129, C8Q | C67R | C84N). Briefly: ITC; p300 binding to BCL6:TCIP3 binary complex (ternary, alpha 3.5). Background: Isothermal titration calorimetry measures the heat released or taken up as one component is titrated into another.
Test [2] deals with T1, BCL6^BTB (residues 5-129; C8Q, C67R, …). Briefly: ITC; BCL6 binding to p300:TCIP3 binary complex (ternary, alpha 13).

B1: 6xHis-p300^BD (p300 bromodomain) (domain or fragment)
chain: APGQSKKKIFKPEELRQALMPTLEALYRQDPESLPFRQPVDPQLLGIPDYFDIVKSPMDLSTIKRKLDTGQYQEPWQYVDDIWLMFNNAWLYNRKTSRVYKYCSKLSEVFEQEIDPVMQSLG
As usually defined, the Kd is the free concentration of one partner at which half of the binding sites on the other are occupied at equilibrium, for simple one-to-one binding. Read a low Kd as a tighter complex. For the molecule B1, the Kd in test [1] came out at 2.37 nM; in test [2] it was 19.8 nM.
